Results from ChEMBL document CHEMBL4476871, “SULFAMIDE AND SULFAMATE INHIBITORS OF hHint1” (2018).

Columns and labels:
[1] = compound: Nc1nc2c(ncn2[C@@H]2O[C@H](COP(=O)(O)NCCc3c[nH]c4ccccc34)[C@@H](O)[C@H]2O)c(=O)[nH]1; test: (§1) Inhibition of full-length human N-terminal His6-tagged Hint1 expressed in Escherichia coli Rosetta 2 pLysS cells assessed as ratio of Kcat to Km
[2] = compound: Nc1ncnc2c1ncn2[C@@H]1O[C@H](COP(=O)(O)OC(=O)CCc2c[nH]c3ccccc23)[C@@H](O)[C@H]1O; test: as §1

B1: Adenosine 5'-monophosphoramidase HINT1 (Homo sapiens), P49773 (protein)
chain: MADEIAKAQVARPGGDTIFGKIIRKEIPAKIIFEDDRCLAFHDISPQAPTHFLVIPKKHISQISVAEDDDESLLGHLMIVGKKCAADLGLNKGYRMVVNEGSDGGQSVYHVHLHVLGGRQMHWPPG
How did the kcat/Km [1] turn out when B1 was run?
The kcat/Km was 1.1 ×10⁷ /M/s.

And the kcat/Km [2]?
The kcat/Km was 1.1 ×10⁷ /M/s.
